Experimental data from patent US7052906.

Assays:
CD33 on HL60 cells = CD33 on HL60 cells (UniProt P20138); assay: cell-based or functional assay
soluble CD33 = soluble CD33 (UniProt P20138); assay: cell-based or functional assay

**Q.** “P67scFv/h.CD28/CD28Tm/FcRγ chimeric receptor (from UniProt P10747 118-134; P10747 135-161; P30273 45-86)” was tested. Which IL-2 production, cell surface-expressed antigen with respect to soluble antigen (CD33 on HL60 cells) did it give?
**A.** 3 fold deficit

**Q.** For “P67scFv/h.CD28/CD28Tm/TCRζ receptor (from UniProt P10747 118-134; P10747 135-161; P20963 31-142)”, which IL-2 production, cell surface-expressed antigen with respect to soluble antigen (CD33 on HL60 cells) is on record?
**A.** > 2 fold deficit

**Q.** With “P67scFv/h.CD28/Tm24/FcRγ chimeric receptor (from UniProt P10747 118-134; P30273 45-86)” as the substance, how does the IL-2 production, cell surface-expressed antigen with respect to soluble antigen (CD33 on HL60 cells) read?
**A.** 5 fold excess

**Q.** And the IL-2 production, change against the CD28 transmembrane receptor (fold increase) (CD33 on HL60 cells)?
**A.** > 5

**Q.** And the IL-2 production, change against the CD28 transmembrane receptor (fold decrease) (soluble CD33)?
**A.** < 3

**Q.** How did the IL-2 production, cell surface-expressed antigen with respect to soluble antigen (CD33 on HL60 cells) turn out when “P67scFv/h.CD28/Tm24/TCRζ chimeric receptor (from UniProt P10747 118-134; P20963 31-142)” was run?
**A.** 2 fold excess

**Q.** For “P67scFv/h.CD28/Tm31/FcRγ chimeric receptor (from UniProt P10747 118-134; P30273 45-86)”, which IL-2 production, cell surface-expressed antigen with respect to soluble antigen (CD33 on HL60 cells) is on record?
**A.** 5 fold excess

**Q.** What about the IL-2 production, change against the CD28 transmembrane receptor (fold increase) (CD33 on HL60 cells) of the same substance?
**A.** > 5

**Q.** And the IL-2 production, change against the CD28 transmembrane receptor (fold decrease) (soluble CD33)?
**A.** < 3
